Tested on: HT-1080 cells
Assay: Adherence and morphology of HT-1080 cells on photoimmobilized hyaluronic acid, before and after hyaluronidase treatment
Type: cell-based
Conditions: 30 minute treatment, 50 microliters of 1000 U/ml, wells not phototreated with HA
Method: This example describes the ability to block adhesion of HT-1080 cells to a surface coated with hyaluronic acid (HA). The HA was functionalized with a photoactive linker and immobilized to the bottom of a well in a tissue culture plate. The material was prepared by reacting the carboxyl group of HA disaccharides with the amine group of a heterobifunctional crosslinker (4-[p-azidosalicylamido]butylamine, ASBA) via carbodiimide chemistry. The other end of the ASBA crosslinker contains a photoactive group, so this reaction renders the HA photoactive. […] Briefly, the HA was dissolved in MES buffer and reacted with EDC and Sulfo-NHS for 15 min at room temperature. The pH of the buffer was adjusted to ca. 7.0 with concentrated PBS and ASBA was added to the solution and allowed to react for 2 h at room temperature in a light-proof vial. The reaction was quenched using 50 mM Tris. Unreacted components and reaction by-products were removed via dialysis against diH2O using a 3,000 MW exclusion. The reaction product was protected from exposure to light during lyophilization. Three species of photoactive HA were prepared that varied according to the molecular weight of the HA chains: low, medium and high MW chains.
The lyophilized, photoactive HA was reconstituted in PBS and adjusted to a working concentration of 0.2 mg/ml. […]

Hyaluronidase
effect of hyaluronidase on cells attached to control wells without HA (morphology, toxicity): did not have a significant effect
effect of hyaluronidase on cells attached to control wells without HA (morphology, toxicity) (listed as HA-ase): does not cause any gross morphological changes or have any toxic effects
